Assay results taken from PMC5980749.

Molecular target: Wild-type E. coli 70S ribosomes, purified from strain MRE600 (E. coli (endogenous in MRE600)) (UniProt P0A7R5)
Assay: co-sedimentation

percent of total NusG recovered in the ribosomal pellet: 19% | stoichiometry N: 1 NusG per 70S
Substance: Escherichia coli transcription factor NusG, His-tagged, wild type (from UniProt P0AFG0 1-181) (natural protein)
